From patent US20110293648A1 (LUDWIG INSTITUTE FOR CANCER RESEARCH, published 2011) come the findings set out here.

One test concerns the target HLA-DR. Briefly: flow cytometry, staining of an EBV cell line (internal control).
A further test has as its target MHC class I. Described as above.
The next test addresses T1, HLA-DRB1*1101 (human).
T1 construct: whole, on cells; On antigen presenting cells in the ELISPOT assays
The test is described as follows: not specified ('The methods described above').

In another test the target is T2, HLA-DRB1*0101 (human).
T2 construct: Only the beta allele is printed
Briefly: not specified ('The methods described above').

The next test has as its target T3, HLA-DRB1*1501 (human).
T3 construct: whole, on cells; On Me 290 cells in the ELISPOT assay
Briefly: not specified ('The methods described above').

Another test addresses T4, HLA-DRB5*0101 (human).
T4 construct: whole, on cells; On Me 290 cells in the ELISPOT assay
The test is described as follows: not specified ('The methods described above').

In the next test the target is T5, HLA-DRB1*0701 (human).
T5 construct: whole, on cells; On LCL 40 or homozygous EBV line BH in the T cell assays
Briefly: not specified ('The methods described above').

Test [1] deals with T6, HLA-DRB1*0301 (human).
T6 construct: whole, on cells; also called DR3; HLA-DR3
Briefly: not specified ('The methods described above').

Test [2] addresses T6, HLA-DRB1*0301. Briefly: cell-based or functional assay.

For the molecule anti-HLA-DR antibody clone L243, the MFI in the test with HLA-DR was determined as 787 MFI.

In the test with MHC class I, anti-pan MHC-I antibody clone W6/32 came in with an MFI of 271 MFI.

B1: SSX-2 peptide p98-112 (peptide)
peptide: QMTFGRLQGISPKIM
notes: also called p98-111 (as printed once); SSX-2 98-112
With B1, the binding result with HLA-DRB1*1101, with HLA-DRB1*0101, with HLA-DRB1*1501 and with HLA-DRB5*0101 was “binds” in each case.

As for FGRLQGISPKIMPKK [SSX-2 peptide p101-115], the binding result with HLA-DRB1*0701 and with HLA-DRB1*0301 [1] was “binds” throughout.

As for WEKMKASEKIFIVYM [SSX-5 37-51 peptide], the “cross-recognition by SSX-2 specific, DR3 restricted CD4+ T cells, peptide titration, IFN-gamma ELISA; efficiency against SSX-2 37-51” value with HLA-DRB1*0301 [2] is roughly 3 fold less efficiently.

For the molecule WEKMKSSEKIVYVYM [SSX-4 37-51 peptide], the “cross-recognition by SSX-2 specific, DR3 restricted CD4+ T cells, peptide titration, IFN-gamma ELISA; efficiency against SSX-2 37-51” value with HLA-DRB1*0301 [2] is roughly 10 fold less efficiently.
